Experimental data published in publication PMC9006937, “Structure-Based Design and Antigenic Validation of Respiratory Syncytial Virus G Immunogens” (Journal of Virology, 2022).
Values joined by “and” are separate entries in the source; they are usually repeats but may differ in a detail not shown here. Equal values may be shown once.

What was measured:
Assay in all cases: BLI; Octet RED384; MAb (1 µg/mL) captured on anti-human IgG Fc (AHC) biosensors; RSV G^ecto proteins in solution, 40 nM 2-fold serially diluted to 0.63 nM (higher starting concentrations for CX4C); PBS pH 7.4, 0.05% Tween 20, 1% BSA; association 300 s, dissociation 600 s; global 1:1 fit; in duplicate
[1] = molecular target: human anti-RSV G monoclonal antibody 2D10 (human)
[2] = molecular target: human anti-RSV G monoclonal antibody 3D3 (human)
[3] = molecular target: human anti-RSV G monoclonal antibody 3G12 (human)
[4] = molecular target: T1, RSV G ectodomain wild-type protein (RSV strain A2, residues 64 to 298) (Human respiratory syncytial virus A, …, UniProt P03423); conditions: both partners purified
T1 construct: glycosylated, runs at about 90 kDa on SDS-PAGE; also called RSV G^ecto WT; wild-type RSV G

With “RSV G ectodomain S177Q mutant protein (residues 64 to 298) (from UniProt P03423 64-298) (domain or fragment)” the Kd [1] was 0.605 nM and 0.485 nM, the koff [1] was 0.000225 s⁻¹ and 0.00015 s⁻¹ and the kon [1] was 371000 M⁻¹ s⁻¹ and 310000 M⁻¹ s⁻¹. For the same molecule, the Kd [2] was 0.538 nM and 0.264 nM, the koff [2] was 0.000199 s⁻¹ and 0.000109 s⁻¹ and the kon [2] was 369000 M⁻¹ s⁻¹ and 414000 M⁻¹ s⁻¹. The Kd [3] was 1.88 nM and 2.28 nM, the koff [3] was 0.000447 s⁻¹ and 0.000528 s⁻¹ and the kon [3] was 238000 M⁻¹ s⁻¹ and 232000 M⁻¹ s⁻¹.

For “RSV G ectodomain S177R mutant protein (residues 64 to 298) (from UniProt P03423 64-298) (domain or fragment)”, the Kd [1] was < 0.001 nM, the koff [1] was < 1e-07 s⁻¹ and the kon [1] was 318000 M⁻¹ s⁻¹ and 253000 M⁻¹ s⁻¹. The Kd [2] was 0.422 nM and 0.57 nM, the koff [2] was 0.000104 s⁻¹ and 0.000151 s⁻¹ and the kon [2] was 247000 M⁻¹ s⁻¹ and 265000 M⁻¹ s⁻¹. For the same molecule, the Kd [3] was 4.34 nM and 4.6 nM, the koff [3] was 0.000581 s⁻¹ and 0.000672 s⁻¹ and the kon [3] was 134000 M⁻¹ s⁻¹ and 146000 M⁻¹ s⁻¹.

B1: human anti-RSV G monoclonal antibody 3D3 (antibody, V domains shown)
VH: EEQLVESGGGLVQPGRSLRLSCVGSGLRFEEHAMHWVRQAPGRGLEWVSGISWNSGSVGYADSVKGRFTTSRDNAKDILFLEMNTLRSEDTALYFCAIMVATTKNDFHYYKDVWGKGTTVTVSS
VL: QIVLTQSPATLSLSPGERATLSCRASQSVSNHLAWYQQKPGQAPRLLIYETSNRATGIPPRFSGSGSGTDFTLTISSLEPEDFAVYYCQQRNNWYTFGQGTKLEIK
notes: heavy chain of human MAb 3D3; light chain of human MAb 3D3; Whole IgG, captured by anti-human IgG Fc biosensors; also called MAb 3D3
In the case of B1, the Kd [4] is reported as < 0.001 nM, the koff [4] is reported as < 1e-07 s⁻¹ and the kon [4] is reported as 426000 M⁻¹ s⁻¹ and 431000 M⁻¹ s⁻¹.

B2: human anti-RSV G monoclonal antibody 3G12 (antibody, V domains shown)
VH: QLQLQESGPGLVKPSETLSLTCTVSGGSISSSNYYWGWIRQPPGKGLEWIASIHDSGSIYYNPSLRSRVTISVDTSKNQFSLKLSSVTAADTAVYYCARHLVWFGELRNNWFDPWGQGTLVTVAS
VL: EIVMTQSPATLSVSPGERATLSCRASQSVNSNLAWYQHKPGQAPRLLIYGASTRATGIPARFSGSGSGTDFTLTISSLQSEDFAVYYCQQYNNWPLFGPGTKVDLK
notes: heavy chain of human MAb 3G12; light chain of human MAb 3G12; Whole IgG, captured by anti-human IgG Fc biosensors; also called MAb 3G12
For B2, the Kd [4] was 0.26 nM and 0.262 nM, the koff [4] was 6.55e-05 s⁻¹ and 5.19e-05 s⁻¹ and the kon [4] was 252000 M⁻¹ s⁻¹ and 198000 M⁻¹ s⁻¹.

B3: human anti-RSV G monoclonal antibody 2D10 (antibody, V domains shown)
VH: QVQLVQSGPEVKKPGASVRLSCKASGYVFTNYGVSWVRQAPGQGLEWMGWSSPYNGNTYYAQKLKARVTMTTDTSTNTAYMELRSLRSDDTAVYYCGRDMLGVVQAVAGPFDSWGQGTLVTVSS
VL: DTPMTQSPSSVSASVGDRVTISCRASQGISNSLAWYQQKLGKAPQLLIYAASSLQSGVPSRFSGSGSGTDFTLTISSLQPEDFATYYCQQTNTFPFTFGPGTKVEVR
notes: heavy-chain variable region of human MAb 2D10; human IgG1 heavy-chain constant region as in the pCMVR VRC01 heavy-chain vector (AIDS Reagent Program); light-chain variable region of human MAb 2D10; light-chain constant region of the pCMVR VRC01 light-chain vector; IgG1; variable regions of 2D10 put in place of those of antibody VRC01 in the pCMVR VRC01 vectors; also called MAb 2D10
In the case of B3, the Kd [4] is reported as < 0.001 nM, the koff [4] is reported as < 1e-07 s⁻¹ and the kon [4] is reported as 370000 M⁻¹ s⁻¹ and 383000 M⁻¹ s⁻¹.
